Measurements published in US20170129954A1 (PROTHENA BIOSCIENCES, published 2017).

T1: human MCAM domain 1 (amino acids 19-129) hFc (human, UniProt P43121 19-129)
T1 construct: One of the various MCAMhFc domains captured on anti-human IgG Fc biosensors; also called MCAMhFc domain; not shown: human IgG Fc (hFc)
T1 sequence: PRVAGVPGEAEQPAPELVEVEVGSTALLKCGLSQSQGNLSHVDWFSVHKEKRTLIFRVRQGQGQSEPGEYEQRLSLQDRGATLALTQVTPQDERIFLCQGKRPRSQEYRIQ

T2: human MCAM, full length, expressed on transfected cells (human, UniProt P43121 24-646)
T2 construct: also called CD146; MUC18
T2 chain: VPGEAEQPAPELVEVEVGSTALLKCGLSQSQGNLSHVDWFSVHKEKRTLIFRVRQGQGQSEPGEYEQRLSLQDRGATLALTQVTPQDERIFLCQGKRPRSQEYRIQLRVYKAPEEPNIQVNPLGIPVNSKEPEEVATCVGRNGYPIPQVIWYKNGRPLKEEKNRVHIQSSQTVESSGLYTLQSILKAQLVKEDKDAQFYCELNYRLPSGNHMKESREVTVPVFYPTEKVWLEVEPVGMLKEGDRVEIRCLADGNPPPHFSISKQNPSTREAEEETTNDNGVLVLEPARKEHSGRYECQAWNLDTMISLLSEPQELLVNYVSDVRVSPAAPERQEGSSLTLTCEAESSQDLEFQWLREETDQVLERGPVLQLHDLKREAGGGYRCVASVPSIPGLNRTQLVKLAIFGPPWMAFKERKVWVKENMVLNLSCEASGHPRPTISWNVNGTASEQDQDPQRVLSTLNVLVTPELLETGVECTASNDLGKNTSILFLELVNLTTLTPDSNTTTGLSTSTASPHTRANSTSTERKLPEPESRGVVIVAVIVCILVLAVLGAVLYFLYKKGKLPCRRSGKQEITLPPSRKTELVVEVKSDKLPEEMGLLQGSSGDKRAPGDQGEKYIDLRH

T3: human MCAM domain 2 (amino acids 139-242) hFc (human, UniProt P43121 139-242)
T3 construct: One of the various MCAMhFc domains captured on anti-human IgG Fc biosensors; also called MCAMhFc domain; not shown: human IgG Fc (hFc)
T3 sequence: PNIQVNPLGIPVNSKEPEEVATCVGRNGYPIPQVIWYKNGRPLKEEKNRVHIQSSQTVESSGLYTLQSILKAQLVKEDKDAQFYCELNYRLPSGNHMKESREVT

T4: combination of human MCAM domains 1 and 2 (amino acids 19-242) hFc (human, UniProt P43121 19-242)
T4 construct: One of the various MCAMhFc domains captured on anti-human IgG Fc biosensors; also called combination of domains 1 and 2; MCAMhFc domain; not shown: human IgG Fc (hFc)
T4 sequence: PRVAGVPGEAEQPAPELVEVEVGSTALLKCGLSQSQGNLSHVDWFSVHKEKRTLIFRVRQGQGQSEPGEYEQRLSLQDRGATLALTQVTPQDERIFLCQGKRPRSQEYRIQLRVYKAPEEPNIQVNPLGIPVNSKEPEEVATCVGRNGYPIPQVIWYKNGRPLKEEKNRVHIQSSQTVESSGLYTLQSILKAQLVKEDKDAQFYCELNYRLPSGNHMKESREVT


Legend:
[1] = molecular target: T1, human MCAM domain 1 (amino acids …); experiment: ForteBio BLI, MCAMhFc domains on anti-human IgG Fc biosensors
Text: (§1) The following protocol was used: ForteBio anti-human IgG Fc biosensors were used to immobilize various MCAMhFc domains including full length MCAMhFc protein on to biosensor surface. […] After loading these samples into a black 96 well plate, the Octet Red was programmed as follows: 60 seconds for baseline #1; 180 seconds for loading various domains; 60 seconds for baseline #2; 180 seconds for association of antibody to domain; and 240 seconds for dissociation of antibody from domain.
(§2) 1. MCAMhFc final concentration @ 5 ug/ml [0329] […] 3. ForteBio anti-human IgG Fc Capture (AHC) biosensors for kinetics experiments, cat #18-5060 [0331] 4. Block 96 well plate from Greiner Bio-one, cat #655209 [0332] 5. ForteBio Octet Red machine [0333] 6. Fresh tissue culture medium, DMEM with 20% FCS, was used as buffer for dilution The results from these analyses are as follows.

[2] = molecular target: T2, human MCAM, full length, expressed on …; experiment: flow cytometry, blocking of recombinant human laminin 411 (20 ug/ml) binding to CHO cells expressing human MCAM
Method: The 87 independent mouse fusion clones and 26 independent rat fusion clones described in Example 1 above as being capable of (i) binding to human MCAM, and (ii) blocking the interaction between human MCAM and the α-4 chain of laminin were further characterized as follows. First, IC50 quantitation for the ability of the monoclonal antibody to block the binding of human MCAM to the α-4 chain of laminin was determined as follows. CHO cells expressing human MCAM were incubated with an anti-human MCAM antibody (at various concentrations) for 30 minutes at 4 degrees Celsius. […] Unbound laminin was then washed away, and the laminin bound to the surface of the cells was detected with fluorescently labeled anti-laminin antibodies. After washing, the amount of laminin bound to the surface was detected by flow cytometry, and IC50s were calculated based on the mean fluorescent intensity.
Amino acid and nucleic acid sequences of the heavy and light chains of these antibodies, and their hypervariable regions, are provided in SEQ ID NOs:29-92. […] As such, each of these specific monoclonal antibodies was very capable of binding to human MCAM and inhibiting the interaction of cell-expressed human MCAM with its α-4 laminin binding ligand.

[3] = molecular target: T3, human MCAM domain 2 (amino acids …); experiment: ForteBio BLI, MCAMhFc domains on anti-human IgG Fc biosensors
Text: as §1, §2

[4] = molecular target: T4, combination of human MCAM domains 1 and …; experiment: as above
Text: as §1, §2

| Binder | binding result [1] | IC50 [2] | binding result [3] | binding result [4] |
| --- | --- | --- | --- | --- |
| rat anti-human MCAM monoclonal antibody clone 2120.4.19 (antibody, V domains shown, Rat hybridoma monoclonal antibody) VH: QVQLKESGPGLVQPSQTLSLTCTVSGFSLTSNGVSWVRQPPGKGLEWIAAISSGGTTYYNSAFKSRLSISRNTSKSQVLLKMNSLQTEDTAMYFCARRYGYGWYFDFWGPGTMVTVSS VL: DIRMTQSPSLLSASVGDRVTLNCKASQNIYNSLAWYQQKLGEGPKVLIFNANSLQTGIPSRFSGSGSGTDFTLTISSLQPEDFATYFCQQFYSGYTFGAGTKLELK | no binding (tested: 5 ug/ml) | 0.888 µg/mL | – | – |
| rat anti-human MCAM monoclonal antibody clone 2107.4.10 (antibody, V domains shown, Rat hybridoma monoclonal antibody) VH: QVQLKESGPGLVQSSQTLSLTCTVSGFSLTSNGVSWVRQPPGKGLEWIAAISSGGSTYYNSAFKSRLSISRNTSKSQVLLKMNSLQTEDTGMYFCARHRPFYFDYWGQGVMVTVSS VL: DIQVTQSPSLLSASVGDRVTLNCKGSQNIYKSLAWFRLKRGEAPKLLIYDANSLQTGIPSRFSGSGSGTDFTLTITSLQPEDVATYFCQQYYSGYTFGAGTKLELK | no binding (tested: 5 ug/ml) | 0.29 µg/mL | – | – |
| mouse anti-human MCAM monoclonal antibody clone 1174.1.3 (antibody, V domains shown, Mouse hybridoma monoclonal antibody) VH: QIQLVQSGPELKKPGETVKISCKASGYTFTNYGMNWVKQAPGKGLKWMGWINTYTGEPTYADDFKGRFALSLETSASTAYLQINNLKNEDMATYFCARYRYNKYERAMDYWGQGTSVTVSS VL: DIVLTQSPASLAVSLGQRATISCRASKSVSTSGYSYMYWYQQKPGQPPKLLIYLASNLESGVPARFSGSGSGTDFTLNIHPVEEEDAATYYCQHSRELPFTFGSGTKLEIK | no binding (tested: 5 ug/ml) | 0.469 µg/mL | no binding (tested: 5 ug/ml) | no binding (tested: 5 ug/ml) |

More lines, now with the values ahead:

| binding result [1] | IC50 [2] | binding result [3] | binding result [4] | Binder |
| --- | --- | --- | --- | --- |
| no binding (tested: 5 ug/ml) | 0.431 µg/mL | no binding (tested: 5 ug/ml) | no binding (tested: 5 ug/ml) | mouse anti-human MCAM monoclonal antibody clone 1414.1.2 (antibody, V domains shown, Mouse hybridoma monoclonal antibody) VH: EIQLQQTGPELVKPGASVKISCKASGYSFTDYIMLWVKQSHGKSLEWIGNINPYSGSSGYNLKFKGKATLTVDKSSSTAYMQLNSLTSEDSAVYYCARGKDFAMDYWGQGTSVTVSS VL: DIVMSQSPSSLAVSAGEKVTMSCKSSQSLLNSSTRKNFLAWYQQKPGQSPKLLIYWASTRESGVPDRFTGSGSGTDFTLTISSVQAEDLAVYYCKQSYNRYTFGGGTKLEIK |
| no binding (tested: 5 ug/ml) | 0.307 µg/mL | no binding (tested: 5 ug/ml) | no binding (tested: 5 ug/ml) | mouse anti-human MCAM monoclonal antibody clone 1415.1.1 (antibody, V domains shown, Mouse hybridoma monoclonal antibody) VH: QVQLQQPGAELVQPGAPVKLSCKASGYIFTSYWMNWVKQRPGRGLEWIGRIDPSDSKIHYNQKFKDKATLTVDRSSSTAYIQLGSLTSEDSAVYYCAKEGGLRRGDYAMDYWGQGTSVTVSS VL: DIVMTQSPATLSVTPGDRVSLSCRASQSISDYLHWYQQKSHESPRLLIKYASQSISGIPSRFSGSGSGSDFTLSINSVEPEDVGVYYCQNGHNFPRTFGGGTKLEIK |
